# Assay results from the domain aggregation screens of Martell et al. (2025).
# Assay: soluble fraction after stress (log2 fold change); higher = more stays soluble; pooled small domains, quantitative proteomics
# Conditions: stress: 75 degC
# 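Note: 20 min heating vs room temperature control held 20 min.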
row,Sequence,soluble fraction (log2)
1,HMKHKGILTTWNDDRGFGFITPKEGKEPVFVHISAFARGQGRPVLNASLTYRLVRDDQQRPRAEAVRL,-1.33
2,HMKHKHHIIPKHKGGTDHPDNLIELTVEQHAKAHWVEFMLDGREEDYWAWKGLEGVASKKDIIYALSKR,-0.0688
3,HMKHSEAIELGKRMLSQALQDVSLVLKKIPEERLQAVAAELNLKTPDELFEKIGLGERLAALVARRLLP,-0.851
4,HMKHTQTDEGELLSTLRTLFPNSSSSSLRKMLTQGRILVNQEVVHRAKHALQAGDEIEVLARQ,-0.13
5,HMKHVDLDNNERYIYGIIGSTKIHVDEVVEKSGMETKHVMAILTNLELKEAIKGIPGGFYLR,-2.02
6,HMKHVENLSDEKTIQAIQENPYMQYLLGLSKFTEKPVFVPELFVLIRKRLDQDFFNMLTLILAEADG,≥ 1.04
7,HMKHYIDFIAEQLKTLTAIPSPSGYTKNATDYLMKLLQDMGYEPKLSRKGNVFVTLGGDGEPLVLAAHVD,0.112
8,HMKIDELKAYLFQSVRVKNPHTQEYDTLKIIELNYYQDKIKAKLKNSDDDYITEMIFESIKHLQNFLG,-2.81
9,HMKIEEIAYSTFISMLDKGEVSKVELKDNLIYIETKADDKTIYTTGRMEDPDLTNRLIEAGVDFTEIE,-0.196
10,HMKIELSDNEKIIYDLLSSQHVLLSEIKDKAGLSNKAWDKSTKSLRKLGLIAVEKKDDDIYISKL,-0.0288
11,HMKIGIYPGTFDPITHGHTDIIRRSLRVFDKVVVAVAPNPSKHPLFTLTERLEMIRIVMKELEHVEVT,0.159
12,HMKILVTDDNIRIDKYLTTQTEYSRSTIQKMIESNNILVNNKPTKSNYILRNNDEITIDENFNEE,-0.00567
13,HMKININEASRYELMTIGGLDAGRADMLMQYRQKREISSADELKGINGFASYDTAKLQKSFEISP,-0.0573
14,HMKIRKAVIPAAGLGTRVLPASKSIPKEMLPIVDKPVIQYIVEEAVKAGITEILIITGRGKGAIEDHFDRS,-0.391
15,HMKISIDNPSVLLDKLATLFPDTSKNKLRKMLTEGRIYVNDNIEHRAKRELINGDTVKILDKTTSKE,-0.121
16,HMKITAPLPGTITEIKVKVGDTVKNGDTVVVLEAMKMQNNIEAESNGTVTAIFVNKGDTVMEGDALMTI,-0.075
17,HMKITTKNYFKAIAEVGVENLPAALKKSHDLIEERTSKGADWSVYEHDAEVRRVFDLTFEKLFEFIDQ,-1.88
18,HMKKAITMGDIITVKELSEKIGIQVAEIIKKLMGLGILATINKELDYDTANVIASEFHIELERK,0.117
19,HMKKASLSTVEKKLMKQNYSNDTMENRLARVESYMFGTVFSSDDTQTRIDRISSAYNAQKSS,-0.0731
20,HMKKDLATYAYEHIKQMVIDRELMPGERIQQEVLARELGISRTPLVTALNRLASENLVELEANKGFSVRRF,-0.451
21,HMKKEETEAEELEEKFTSAQIKQAYGILNDPRYKQGNYSGAVNVINKIAPGLADHPDVKNALKRANEEL,0.809
22,HMKKGRIGSIIQYVREHPGVSSSEIITGLGLDISPATIRRDLTLLVAENKLSVEGQNKGTKYFVSPTYDMF,-1.22
23,HMKKIDVEVVRSQLIAWMADNGKSQAEVSKSMGISASALSMFIKGTYTGDNEQIGRKAAALMDLVHRQSA,-1.41
24,HMKKILITGNSGYIGSHLSKMLENDYEVHGLDIRQPQHPVAKFYEQDINRPINIEEEYDAVIHLAALV,-0.348

row,Sequence,soluble fraction (log2)
1,HMKKILLGDVNLDGKVDVNDVTLLQRYIAGETEVITSKDALTATNFNKDGNIDVLDVTDIQTFIANSE,-0.293
2,HMKKLTNKQIIFFAEKLAHHSDFASKYSKVGESYEEFAIRLEKELNTPQKVEFYSSYLEKVGFK,-2.54
3,HMKKPKTVLSEEQKEFIINQAQDGVSAYDIARILFPSVNVTNLSKEVIDVAEFIRDTDIKLLADSE,0.00266
4,HMKKPRKTSRKSIENAAIFYLQRFSSSIENLRRVLMRRVYRSAQYHNTKPEEDAKIVDSIIYRLIETGVL,-0.322
5,HMKKSRLHSVLEEIPGIGEKRRKILIKHFGTVEAIKKSSLEELARIKGMNRRAAQNVLEYLK,-0.775
6,HMKKVIKIEENVSLQKLAALMSLKVTDVLMRLLSMGMSGVNINSTIDADTAKILASEFGWTVED,-0.529
7,HMKKVKVPNVVGMSLKEARDALSAVNIAVNQVAGSVEDKSVVTEQSLKAGDEVDEGSSLNLTTEYK,0.878
8,HMKKYLTETEAAAYLNMPVEEIKAAITKGEIEQYVKTSSGYTISVEELDKFFGQKAYDTMTSNNS,0.0786
9,HMKLASIGDNIHTLRKNKGLTQSQLAGKLGVNVDTISNYEKGVSTPDFDIVEKLVNIFNVDAHSLLFK,-0.287
10,HMKLEKKWIEAVEKYRRYVLSTGIKHVQKPIEFENFRLGQWYADVRQSYRRGTLSKEKLLEIREINPDFPN,-2.17
11,HMKLFGTPGSPFARKVRIVLEEKRIPHEYIIERGSAPGSRVPQYNPLGKVPTLVLDDGRGLYDSPVIVEYL,-0.531
12,HMKLGYTVHGNVVTVKAVANGISLYNTIGQKVAESTDGQTVKAPAHGVYILSVQGKSGSRETAKIVI,-1.67
13,HMKLHQDLQIKVIDAANNKVEFIDTATGTSLATRTLDVNGVSKARGFEATLYGVVEDNDVFHIA,0.121
14,HMKLIRIPFILTEGPDSQKITIDVDGDEEFRLGDVFEEDDKLWTVNQILVSGERKAKRSMAGEVMRISALR,-1.2
15,HMKLNEQSMQVIDRIVDRHRGRPGPVKLMLHDVQKELGYIPFEAMEKIAAASGVSADEVYGVVTFYTQFTT,-0.919
16,HMKLNETIAEARKRKGLTQEQLAQKLYVTRQAVSRWERGEVVPGIDMLKLIAITLEEPIVHLL,-1.64
17,HMKLQIQNIEIDKKISELAEGVSAEKLPFLAKLIDRSKLLNDKGEINEDSVKAAIEEVVKAFPDFK,0.0511
18,HMKLRKINLIGIFGSKTAPSALVRLTNGRVLKVGLGELLDGGRVTAIGRSSLTYNKSGKSITLNMPI,-4.08
19,HMKLRYRTQEELLGVAREYRRRGLPLSVIVIDFYHWTKFGDWKFDPAYWPDPVGMVRELRDMGVEAAV,-0.17
20,HMKLSKKVTDFLAQMPSKSISPKMLANNLGLADDAGDYKHLLKTIAQLEESKAIEVTAAGNIALPQPE,-0.162
21,HMKLSLKTQVKEYLLSYIRDKKLQPGDRLLTQRELAEMLHTSQKVAQMALNSLEEEGIIIRRLGSGSFLAR,-1.31
22,HMKLTKPQEVFIQELLKGSSQYEAYLKAYPSKKTWKRNSIDTEASKLFKNAKIKQRYEELLYNIREE,-0.695
23,HMKLTNNDFIRLKTFMYNNYGINLENKKTLIETRLAIVVKRLGFNDFKSYIDNLMRDKTGEQASIIVGKLT,-2.83
24,HMKLTPKQQQIYDFISSFADEHGYPPSVREIAQAVNLKSPATVHFHLKGLREAGYISQAEGKTRAITI,-0.158

row,Sequence,soluble fraction (log2)
1,HMKMDGESQRLLSLIKEQGGSLPIGDKSSPEAIYRLTQMSKKTFKMALGSLYKAKQVVLSPTEVRL,-1.45
2,HMKMNFNEEEQKLLSEANVLVETNKTYTDDEVKGFSNKIVEHIMTFSKTDIPKVKSKFDPILFKI,-0.359
3,HMKMTIEDLITQAKESNAAENYYEAFQLYSKAIDVLPNDPDLYSARGVVLFHLDRKEDSLIDMNKSVD,-0.17
4,HMKMVEIDYGKFLTMLDTGKVKSVEIENNRIAINPSSSKDKNIYITGRMDDPELVDRLKNAKVEFTKVIP,-0.0753
5,HMKNAYDLKMLVKDNDGNIERNMKYYFFLANGSKVEGITDDNGYTKTITTIQPEKADLHLINDELI,-1.61
6,HMKNDIQLKHDVEEELQWDPAVDASRFAVQAKDGVVTLSGGVDTFADKHAAEEAIRRVAGVTALVIHVDV,-0.27
7,HMKNEFRVYPNPANKEIVTFNQTQDIEVYDTLGKLVLKAKNTNTLDTKSFHSGIYFIKTGSGLTRKLVV,-1.09
8,HMKNEQESIAQKLYEAALKNDFVTIQEIQSGGYRLRNDDLTHMRESGVQSNTLIAIQKIFGL,0.404
9,HMKNEQIFIVRPDAEGTRLDQWLAAQMASSEEAPSRMQIQRWIKAGLVEGQGTLNPARRIEAGESYTVKPG,0.0684
10,HMKNEYAMVIQVNGKLRGNMLVSADLEQKDIERMALDNEDIKRFISHENDVKKMIFVPKKLINIVT,-1.21
11,HMKNIFDWLKQINYHKQPADSFTEKDWELFNSYMVHRFMSMNREFIEVVNYVQEMPPQEKILIYNIYREF,-2.16
12,HMKNIINFIVKEDDNNKRVDMILANHDKSLSRTRVKNLILDSKLKINERIVQDPSIKTKLNDKIELEIVEP,0.631
13,HMKNIINLVIDGELHGKRIDAVIAQKNDSLSRTRIKNLVINGNLSINDEIVSDPSKKIYKDDKVSLTIPLP,-0.322
14,HMKNIMRQWIELEPDQGKIRSKLYSLDRVVEETTNEVGMIKLLLEIDEKELNNLVSHNDIRLV,-0.425
15,HMKNIRKQAIEAIDRIKNGNPIVISKNAKLIFKNIAKEANVSPTELHREFRDVMLYVNSLKAP,-0.346
16,HMKNKVTVPKVEGMDKEEAIQALNEVGLGYKAVMQSSDSVAEGKVISQGTAAGKKVDKNTQIIITVSGG,0.237
17,HMKNLADNIVALRKKHGLSQEQFAEKIDVTRQAVSNWERRIATPDVETIDLIAKLFDTDLTALVNG,-0.342
18,HMKNLKLVSNTDGIRIDSWLADEFEDYSRSYLRKLIDQDLVYVNGNKIKANYKLKKGDEISISIPEPE,-0.151
19,HMKNLTERQQQIIALISGNPLITRAEIASAIGFSVKTIERELSILSEIVSYVGSKKGGHWEIQT,-2.66
20,HMKNLTERQQRIIALISENPQTTRAEIAGAIGVATKTIERELTTLSNIVYYVGPKKGGHWEIIK,-1.51
21,HMKNLTEVEYSEFLESIAQDRVSKVQVDGLIIRGEMNDGQRFETVQPQVTDKALIDDMVNHRVDFSGARP,0.295
22,HMKNMSLGERIKEQRKSSGLSQEKVAEFVGVSRQAVTKWETGQSAPSTENLFKLAEIFGTTVDILLA,-0.198
